Results: patent publication US20240301041A1 (Regeneron, published 2024)

What was measured:
[1] = molecular target: T1, IgG binding protein (Protein A homolog SpsQ/SpsP) on MRSP S. pseudintermedius 88493 (Staphylococcus pseudintermedius); assay: ELISA, coated S. pseudintermedius 88493, antibody 3.86E-08 M
T1 construct: whole, on cells; also called MRSP Staphylococcus pseudintermedius 88493 (methicillin-resistant)

[2] = molecular target: T2, IgG binding protein (Protein A homolog SpsQ/SpsP) on S. pseudintermedius AHDRCC 98200 (Staphylococcus pseudintermedius); assay: ELISA, coated S. pseudintermedius 98200, antibody 7.54E-11 M
T2 construct: whole, on cells; also called S. pseudintermedius 98200; Staphylococcus pseudintermedius AHDRCC 98200

[3] = molecular target: T3, Protein A on the surface of S. aureus Newman wild-type (Staphylococcus aureus (strain Newman), UniProt P38507 37-477); assay: flow cytometry; blocking antibody 10 ug/mL, then Alexa-488 Fc fragment (competitor) on wild-type S. aureus
T3 construct: whole, on cells; also called S. aureus Newman WT; wild-type S. aureus expressing Protein A

[4] = molecular target: T2, IgG binding protein (Protein A homolog …); assay: ELISA, coated S. pseudintermedius 98200, antibody 3.09E-07 M
[5] = molecular target: T3, Protein A on the surface of S. aureus …; assay: ELISA, coated S. aureus Newman, antibody 7.54E-11 M
[6] = molecular target: T3, Protein A on the surface of S. aureus …; assay: ELISA on plate-coated S. aureus Newman WT
[7] = molecular target: T1, IgG binding protein (Protein A homolog …); assay: ELISA, coated S. pseudintermedius 88493, antibody 6.03E-10 M
[8] = molecular target: T4, IgG binding protein (Protein A homolog SpsQ/SpsP) on S. intermedius 27369 (Staphylococcus intermedius); assay: ELISA, coated S. intermedius 27369, antibody 7.54E-11 M
T4 construct: whole, on cells; also called Staphylococcus intermedius 27369

[9] = molecular target: T1, IgG binding protein (Protein A homolog …); assay: ELISA, coated S. pseudintermedius 88493, antibody 9.42E-12 M
[10] = molecular target: T2, IgG binding protein (Protein A homolog …); assay: ELISA, coated S. pseudintermedius 98200, antibody 6.03E-10 M
[11] = molecular target: T3, Protein A on the surface of S. aureus …; assay: flow cytometry; blocking antibody 10 ug/mL, then Alexa-488 VH3 hIgG1*/* antibody (competitor) on wild-type S. aureus
[12] = molecular target: T4, IgG binding protein (Protein A homolog …); assay: cell-based or functional assay
[13] = molecular target: T3, Protein A on the surface of S. aureus …; assay: cell-based or functional assay
[14] = molecular target: T2, IgG binding protein (Protein A homolog …); assay: cell-based or functional assay
[15] = molecular target: T5, Protein A (purified reagent) (Staphylococcus aureus, UniProt P38507 37-477); assay: SPR (Biacore), mAb captured by anti-human Fc, Protein A injected, 37 C
T5 construct: also called Protein A (Calbiochem, 539202-5 MG); Protein A reagent

[16] = molecular target: T2, IgG binding protein (Protein A homolog …); assay: ELISA, coated S. pseudintermedius 98200, antibody 1.47E-13 M
[17] = molecular target: T2, IgG binding protein (Protein A homolog …); assay: ELISA, coated S. pseudintermedius 98200, antibody 1.18E-12 M
[18] = molecular target: T1, IgG binding protein (Protein A homolog …); assay: ELISA, coated S. pseudintermedius 88493, antibody 4.82E-09 M
[19] = molecular target: T4, IgG binding protein (Protein A homolog …); assay: ELISA, coated S. intermedius 27369, antibody 9.42E-12 M
[20] = molecular target: T4, IgG binding protein (Protein A homolog …); assay: ELISA, coated S. intermedius 27369, antibody 3.09E-07 M
[21] = molecular target: T3, Protein A on the surface of S. aureus …; assay: ELISA, coated S. aureus Newman, antibody 1.18E-12 M
[22] = molecular target: T2, IgG binding protein (Protein A homolog …); assay: ELISA, coated S. pseudintermedius 98200, antibody 3.86E-08 M
[23] = molecular target: T3, Protein A on the surface of S. aureus …; assay: ELISA, coated S. aureus Newman, antibody 1.47E-13 M

B1: H1xH15140P*/* (anti-Protein A) (antibody, V domains shown)
VH: EVQLVESGGGLVQPGGSLTLSCTASGFSFSSYVMSWVRQSPGKGLEWVSAIGGSGTSTYYRDSVKGRFTISRDNSKNTLNLQMSSLRAEDTAVYYCARDGLGHRDYWGQGTLVTVSS
VL: DIQMTQSPSSVSASVGDRVTITCRASQGINSWLAWYQQKPGKAPKLLIYAASSLQSGVPSRFSGSGSGTDFTLTISSLQPEDFATYYCQQANSFPFTFGPGTKVDIK
notes: also called anti-Protein A hIgG1*/*; H1xH15140P*/*-L1
ELISA luminescent signal [1]: 6360
ELISA luminescent signal [2]: 4680
Fc: S. aureus blocking activity (%) [3]: 97%
ELISA luminescent signal [4]: 20600
ELISA luminescent signal [5]: 238000
EC50 [6]: 0.0154 nM
ELISA luminescent signal [7]: 10000
ELISA luminescent signal [8]: 2660
ELISA luminescent signal [9]: 4270
ELISA luminescent signal [10]: 4890
VH3 antibody: S. aureus blocking activity (%) [11]: 84.7%
median cfu/mL after 16 h in 50% normal human serum, mAb 10 ug/mL [12]: 6e+06 cfu/mL
median cfu/mL after 16 h in 50% normal human serum, mAb 30 ug/mL [12]: 8.3e+06 cfu/mL
median cfu/mL after 16 h in 50% normal human serum, mAb 90 ug/mL [12]: 8.5e+06 cfu/mL
median cfu/mL after 16 h in 50% normal human serum, mAb 270 ug/mL [12]: 3.8e+06 cfu/mL
median cfu/mL after 16 h in 50% normal human serum, mAb 10 ug/mL [13]: 4.3e+06 cfu/mL
median cfu/mL after 16 h in 50% normal human serum, mAb 30 ug/mL [13]: 1e+06 cfu/mL
median cfu/mL after 16 h in 50% normal human serum, mAb 90 ug/mL [13]: 600000 cfu/mL
median cfu/mL after 16 h in 50% normal human serum, mAb 270 ug/mL [13]: 180000 cfu/mL
median cfu/mL after 16 h in 50% normal human serum, mAb 10 ug/mL [14]: 7.3e+06 cfu/mL
median cfu/mL after 16 h in 50% normal human serum, mAb 30 ug/mL [14]: 6.8e+06 cfu/mL
median cfu/mL after 16 h in 50% normal human serum, mAb 90 ug/mL [14]: 6.8e+06 cfu/mL
median cfu/mL after 16 h in 50% normal human serum, mAb 270 ug/mL [14]: 4.5e+06 cfu/mL
Kd [15]: 0.0986 nM
koff [15]: 0.000117 s⁻¹
kon [15]: 1.19e+06 M⁻¹ s⁻¹
t½ [15]: 1.65 h
ELISA luminescent signal [16]: 3940
ELISA luminescent signal [17]: 5020
ELISA luminescent signal [18]: 5970
ELISA luminescent signal [19]: 1520
ELISA luminescent signal [20]: 21000
ELISA luminescent signal [21]: 28400
ELISA luminescent signal [22]: 6680
ELISA luminescent signal [23]: 22000
